From publication doi:10.1101/2021.01.08.425906

Target: CagFbFP-I52T-Q148K (Chloroflexus aggregans) (UniProt B8GAY9)
Assay: crystal structure

Substance: CagFbFP-I52T-Q148K (from UniProt B8GAY9 47-153) (domain or fragment)
- stoichiometry N: 2
